T1: α1D-adrenoceptor (human (endogenous in hVSMCs), UniProt P25100 1-572)
T1 construct: α1D-adrenoceptor, endogenous in human vascular smooth muscle cells; also called α1D-AR; source: endogenous, hVSMCs (primary aortic smooth muscle cells, ATCC PCS-100-012), fixed cells
T1 sequence (looked up): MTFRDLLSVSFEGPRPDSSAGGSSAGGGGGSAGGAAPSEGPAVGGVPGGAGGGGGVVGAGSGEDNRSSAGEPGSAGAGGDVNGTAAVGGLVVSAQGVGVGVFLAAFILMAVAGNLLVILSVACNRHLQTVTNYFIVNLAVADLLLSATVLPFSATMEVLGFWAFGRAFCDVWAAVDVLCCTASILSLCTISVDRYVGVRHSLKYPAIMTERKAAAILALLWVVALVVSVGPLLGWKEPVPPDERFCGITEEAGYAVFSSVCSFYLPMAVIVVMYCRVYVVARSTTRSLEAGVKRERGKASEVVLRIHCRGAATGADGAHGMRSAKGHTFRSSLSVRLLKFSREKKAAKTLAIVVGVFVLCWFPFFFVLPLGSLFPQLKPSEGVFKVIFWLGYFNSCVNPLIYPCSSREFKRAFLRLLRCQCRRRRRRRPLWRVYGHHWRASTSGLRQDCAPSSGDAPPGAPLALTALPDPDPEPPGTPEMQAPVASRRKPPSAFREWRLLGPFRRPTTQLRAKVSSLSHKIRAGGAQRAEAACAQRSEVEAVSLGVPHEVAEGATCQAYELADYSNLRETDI

B1: α1A-adrenoceptor (receptor, human (endogenous in hVSMCs), UniProt P35348 1-466, looked up)
chain: MVFLSGNASDSSNCTQPPAPVNISKAILLGVILGGLILFGVLGNILVILSVACHRHLHSVTHYYIVNLAVADLLLTSTVLPFSAIFEVLGYWAFGRVFCNIWAAVDVLCCTASIMGLCIISIDRYIGVSYPLRYPTIVTQRRGLMALLCVWALSLVISIGPLFGWRQPAPEDETICQINEEPGYVLFSALGSFYLPLAIILVMYCRVYVVAKRESRGLKSGLKTDKSDSEQVTLRIHRKNAPAGGSGMASAKTKTHFSVRLLKFSREKKAAKTLGIVVGCFVLCWLPFFLVMPIGSFFPDFKPSETVFKIVFWLGYLNSCINPIIYPCSSQEFKKAFQNVLRIQCLCRKQSSKHALGYTLHPPSQAVEGQHKDMVRIPVGSRETFYRISKTDGVCEWKFFSSMPRGSARITVSKDQSSCTTARVRSKSFLQVCCCVGPSTPSLDKNHQVPTIKVHTISLSENGEEV
notes: α1A-adrenoceptor, endogenous in human vascular smooth muscle cells; also called α1A-AR; source: endogenous, hVSMCs (primary aortic smooth muscle cells, ATCC PCS-100-012), fixed cells
B2: α1B-adrenoceptor (receptor, human (endogenous in hVSMCs), UniProt P35368 1-520, looked up)
chain: MNPDLDTGHNTSAPAHWGELKNANFTGPNQTSSNSTLPQLDITRAISVGLVLGAFILFAIVGNILVILSVACNRHLRTPTNYFIVNLAMADLLLSFTVLPFSAALEVLGYWVLGRIFCDIWAAVDVLCCTASILSLCAISIDRYIGVRYSLQYPTLVTRRKAILALLSVWVLSTVISIGPLLGWKEPAPNDDKECGVTEEPFYALFSSLGSFYIPLAVILVMYCRVYIVAKRTTKNLEAGVMKEMSNSKELTLRIHSKNFHEDTLSSTKAKGHNPRSSIAVKLFKFSREKKAAKTLGIVVGMFILCWLPFFIALPLGSLFSTLKPPDAVFKVVFWLGYFNSCLNPIIYPCSSKEFKRAFVRILGCQCRGRGRRRRRRRRRLGGCAYTYRPWTRGGSLERSQSRKDSLDDSGSCLSGSQRTLPSASPSPGYLGRGAPPPVELCAFPEWKAPGALLSLPAPEPPGRRGRHDSGPLFTFKLLTEPESPGTDGGASNGGCEAAADVANGQPGFKSNMPLAPGQF
notes: α1B-adrenoceptor, endogenous in human vascular smooth muscle cells; also called α1B-AR; source: endogenous, hVSMCs (primary aortic smooth muscle cells, ATCC PCS-100-012), fixed cells

Columns and labels:
Test in all cases: proximity ligation; Duolink II PLA on hVSMCs fixed with 4% paraformaldehyde; two primary antibodies from differing species (1:500, 37°C, 105 min); control: omission of one primary antibody; PLA signals per cell counted; cells untreated or incubated 72 h with non-targeting, CXCR4, ACKR3 or AVPR1A siRNA
Settings in all cases: partners not purified
α1B-adrenoceptor = target: B2
α1A-adrenoceptor = target: B1
α1D-adrenoceptor = target: T1, α1D-adrenoceptor

| Binder | PLA signals after AVPR1A siRNA, % of NT siRNA (α1B-adrenoceptor) | PLA signals after AVPR1A siRNA, % of NT siRNA (α1A-adrenoceptor) | PLA signals after AVPR1A siRNA, % of NT siRNA (α1D-adrenoceptor) |
| --- | --- | --- | --- |
| chemokine (C-X-C motif) receptor 4 (receptor, human (endogenous in hVSMCs), UniProt P61073 1-352, looked up, chemokine (C-X-C motif) receptor 4 (CXCR4), endogenous in human vascular smooth muscle cells; also called CXCR4; source: endogenous, hVSMCs (primary aortic smooth muscle cells, ATCC PCS-100-012), fixed cells) MEGISIYTSDNYTEEMGSGDYDSMKEPCFREENANFNKIFLPTIYSIIFLTGIVGNGLVILVMGYQKKLRSMTDKYRLHLSVADLLFVITLPFWAVDAVANWYFGNFLCKAVHVIYTVNLYSSVLILAFISLDRYLAIVHATNSQRPRKLLAEKVVYVGVWIPALLLTIPDFIFANVSEADDRYICDRFYPNDLWVVVFQFQHIMVGLILPGIVILSCYCIIISKLSHSKGHQKRKALKTTVILILAFFACWLPYYIGISIDSFILLEIIKQGCEFENTVHKWISITEALAFFHCCLNPILYAFLGAKFKTSAQHALTSVSRGSSLKILSKGKRGGHSSVSTESESSSFHSS | 72% | 91% |  |
| B1 | 101% |  |  |
| B2 |  |  | 141% |

From paper PMC8224933, “Plasticity of seven-transmembrane-helix receptor heteromers in human vascular smooth muscle cells” (PLoS ONE, 2021)
